Experimental data taken from patent publication US20070134693A1 (published 2007).

Biological target: T1, M-tropic HIV-1MN envelope glycoprotein gp120 (HIV-1 MN, UniProt P05877 32-513)
T1 construct: also called HIV-1 gp120; HIV-MN gp120
Assay: fluorescent bead adhesion assay on K562-DC-SIGN cells

B1: DC-SIGN (receptor)
chain: MSDSKEPRLQQLGLLEEEQLRGLGFRQTRGYKSLAGCLGHGPLVLQLLSFTLLAGLLVQVSKVPSSISQEQSRQDAIYQNLTQLKAAVGELSEKSKLQEIYQELTQLKAAVGELPEKSKLQEIYQELTRLKAAVGELPEKSKLQEIYQELTWLKAAVGELPEKSKMQEIYQELTRLKAAVGELPEKSKQQEIYQELTRLKAAVGELPEKSKQQEIYQELTRLKAAVGELPEKSKQQEIYQELTQLKAAVERLCHPCPWEWTFFQGNCYFMSNSQRNWHDSITACKEVGAQLVVIKSAEEQNFLQLQSSRSNRFTWMGLSDLNQEGTWQWVDGSPLLPSFKQYWNRGEPNNVGEEDCAEFSGNGWNDDKCNLAKFWICKKSAASCSRDEEQFLSPAPATPNPPPA
notes: whole, on cells; also called K562-DC-SIGN; THP-1-DC-SIGN
binding result: binds
